According to publication PMC6349402:

Target: FGFR1c and βKlotho receptor complex on membrane vesicles of CHO cells overexpressing both (human) (UniProt Q86Z14)
Experiment: cryo-EM and cryo-ET of a gold-nanoparticle-labelled ligand on membrane vesicles; membrane preparations (~5 mg/ml) incubated with AuE38C-FGF21 (0.03 mg/ml) on ice for 30 min, washed with 1X PBS three times, plunge-frozen; AuNPs and AuNP pairs counted in tomograms

Chain of UniProt Q86Z14 (Q86Z14 whole entry, chain 1 of 2): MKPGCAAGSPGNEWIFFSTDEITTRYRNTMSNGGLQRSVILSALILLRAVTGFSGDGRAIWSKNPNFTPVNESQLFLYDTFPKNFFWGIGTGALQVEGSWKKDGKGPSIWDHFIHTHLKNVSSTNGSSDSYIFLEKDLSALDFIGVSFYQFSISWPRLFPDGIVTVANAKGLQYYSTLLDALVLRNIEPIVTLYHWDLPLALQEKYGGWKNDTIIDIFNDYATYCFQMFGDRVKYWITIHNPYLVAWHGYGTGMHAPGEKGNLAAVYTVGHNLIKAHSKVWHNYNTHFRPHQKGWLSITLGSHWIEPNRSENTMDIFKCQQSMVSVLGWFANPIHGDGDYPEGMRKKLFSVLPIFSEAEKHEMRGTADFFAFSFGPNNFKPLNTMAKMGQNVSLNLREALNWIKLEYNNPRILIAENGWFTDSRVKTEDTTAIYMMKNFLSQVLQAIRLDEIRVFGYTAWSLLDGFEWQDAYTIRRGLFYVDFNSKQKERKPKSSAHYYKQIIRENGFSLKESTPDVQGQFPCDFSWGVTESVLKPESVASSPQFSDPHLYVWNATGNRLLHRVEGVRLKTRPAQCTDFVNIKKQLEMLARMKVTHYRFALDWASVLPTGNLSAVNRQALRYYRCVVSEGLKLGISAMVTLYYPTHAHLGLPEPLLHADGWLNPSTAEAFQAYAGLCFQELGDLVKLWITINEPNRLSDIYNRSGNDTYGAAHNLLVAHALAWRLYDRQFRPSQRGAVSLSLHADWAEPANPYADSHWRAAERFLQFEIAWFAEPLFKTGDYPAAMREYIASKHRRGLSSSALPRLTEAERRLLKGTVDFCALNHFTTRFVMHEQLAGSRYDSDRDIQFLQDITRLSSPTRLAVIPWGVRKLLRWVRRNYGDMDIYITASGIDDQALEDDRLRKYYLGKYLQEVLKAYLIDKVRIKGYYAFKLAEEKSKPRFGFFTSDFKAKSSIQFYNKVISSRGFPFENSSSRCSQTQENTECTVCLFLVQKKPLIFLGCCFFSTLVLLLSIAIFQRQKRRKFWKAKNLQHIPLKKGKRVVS
Chain of UniProt Q86Z14 (P11362 22-822, chain 2 of 2, further chain): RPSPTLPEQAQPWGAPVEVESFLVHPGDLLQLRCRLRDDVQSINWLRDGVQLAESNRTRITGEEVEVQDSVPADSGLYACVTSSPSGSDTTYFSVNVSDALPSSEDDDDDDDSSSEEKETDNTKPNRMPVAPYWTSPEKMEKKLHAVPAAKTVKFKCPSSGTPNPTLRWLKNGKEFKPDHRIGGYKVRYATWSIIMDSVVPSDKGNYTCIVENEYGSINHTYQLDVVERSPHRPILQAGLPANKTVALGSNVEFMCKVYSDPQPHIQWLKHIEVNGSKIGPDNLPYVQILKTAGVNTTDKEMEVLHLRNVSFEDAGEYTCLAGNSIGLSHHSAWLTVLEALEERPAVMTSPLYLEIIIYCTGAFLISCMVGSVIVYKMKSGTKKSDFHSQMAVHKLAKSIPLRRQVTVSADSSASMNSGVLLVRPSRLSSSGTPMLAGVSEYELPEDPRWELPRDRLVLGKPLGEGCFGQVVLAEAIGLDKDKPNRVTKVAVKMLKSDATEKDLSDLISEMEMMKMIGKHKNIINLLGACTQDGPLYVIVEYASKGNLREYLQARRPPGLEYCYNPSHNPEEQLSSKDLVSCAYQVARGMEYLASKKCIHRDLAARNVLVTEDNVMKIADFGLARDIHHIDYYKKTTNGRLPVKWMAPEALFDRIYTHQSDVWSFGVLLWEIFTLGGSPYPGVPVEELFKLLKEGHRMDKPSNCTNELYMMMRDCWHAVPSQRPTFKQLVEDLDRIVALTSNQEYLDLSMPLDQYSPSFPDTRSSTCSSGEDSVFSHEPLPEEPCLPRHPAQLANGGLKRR

percent of AuNPs in true pairs: 85%
stoichiometry N (copies of FGF21 in the receptor complex): 2
Substance: AuNP-FGF21 (E38C-FGF21 conjugated with a 144-gold atom nanoparticle) (ligand)
